In IntAct's records for PubMed 16837009:

B1: Serine/threonine-protein kinase PAK 2 (Homo sapiens), Q13177 (parent)
chain: MSDNGELEDKPPAPPVRMSSTIFSTGGKDPLSANHSLKPLPSVPEEKKPRHKIISIFSGTEKGSKKKEKERPEISPPSDFEHTIHVGFDAVTGEFTGMPEQWARLLQTSNITKLEQKKNPQAVLDVLKFYDSNTVKQKYLSFTPPEKDGFPSGTPALNAKGTEAPAVVTEEEDDDEETAPPVIAPRPDHTKSIYTRSVIDPVPAPVGDSHVDGAAKSLDKQKKKTKMTDEEIMEKLRTIVSIGDPKKKYTRYEKIGQGASGTVFTATDVALGQEVAIKQINLQKQPKKELIINEILVMKELKNPNIVNFLDSYLVGDELFVVMEYLAGGSLTDVVTETCMDEAQIAAVCRECLQALEFLHANQVIHRDIKSDNVLLGMEGSVKLTDFGFCAQITPEQSKRSTMVGTPYWMAPEVVTRKAYGPKVDIWSLGIMAIEMVEGEPPYLNENPLRALYLIATNGTPELQNPEKLSPIFRDFLNRCLEMDVEKRGSAKELLQHPFLKLAKPLSSLTPLIMAAKEAMKSNR

Variants of: B1
Settings: with limk1_human LIMK1, P53667
Sequence of limk1_human LIMK1, P53667 (P53667 whole entry, looked up): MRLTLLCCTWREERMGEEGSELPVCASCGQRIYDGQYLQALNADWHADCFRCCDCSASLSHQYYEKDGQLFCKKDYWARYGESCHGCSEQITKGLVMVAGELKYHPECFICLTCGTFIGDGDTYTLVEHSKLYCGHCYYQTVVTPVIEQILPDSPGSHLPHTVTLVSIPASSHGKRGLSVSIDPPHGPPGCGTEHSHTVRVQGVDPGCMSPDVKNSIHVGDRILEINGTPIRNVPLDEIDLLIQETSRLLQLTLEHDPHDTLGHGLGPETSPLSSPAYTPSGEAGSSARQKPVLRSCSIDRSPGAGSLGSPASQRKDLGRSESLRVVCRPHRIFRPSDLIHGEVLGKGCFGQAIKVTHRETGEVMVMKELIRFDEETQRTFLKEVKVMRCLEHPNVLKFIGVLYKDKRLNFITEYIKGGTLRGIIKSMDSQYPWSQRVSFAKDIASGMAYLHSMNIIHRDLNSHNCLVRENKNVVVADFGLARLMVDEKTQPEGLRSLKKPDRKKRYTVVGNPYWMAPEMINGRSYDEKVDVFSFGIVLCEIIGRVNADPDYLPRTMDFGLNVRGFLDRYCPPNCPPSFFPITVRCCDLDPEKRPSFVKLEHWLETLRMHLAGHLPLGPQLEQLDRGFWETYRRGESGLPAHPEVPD

Variant	effect of a mutation on the interaction
L449Q	increasing interaction
